# Measurements as given in US20250333481A1.
# Molecular target: chimeric receptor consisting of extracellular domain of BDNF receptor TrkB and transmembrane domain and cytoplasmic domain of thrombopoietin receptor c-Mpl
# Assay: cell-based or functional assay
substance,measurement,value
recombinant wild-type hBDNF (Abcam) (from UniProt P23560 129-247) (ligand),"EC50, cell proliferation of BaF/TrkB·c-Mpl chimera cells (MTS, absorbance at 490 nM)",1.19 nM
